# Values joined by “and” are separate entries in the source; they are usually repeats but may differ in a detail not shown here. Identical values can stand only once.
# B1: Alpha-amylase, P29957 (parent)
# chain: MKLNKIITTAGLSLGLLLPSIATATPTTFVHLFEWNWQDVAQECEQYLGPKGYAAVQVSPPNEHITGSQWWTRYQPVSYELQSRGGNRAQFIDMVNRCSAAGVDIYVDTLINHMAAGSGTGTAGNSFGNKSFPIYSPQDFHESCTINNSDYGNDRYRVQNCELVGLADLDTASNYVQNTIAAYINDLQAIGVKGFRFDASKHVAASDIQSLMAKVNGSPVVFQEVIDQGGEAVGASEYLSTGLVTEFKYSTELGNTFRNGSLAWLSNFGEGWGFMPSSSAVVFVDNHDNQRGHGGAGNVITFEDGRLYDLANVFMLAYPYGYPKVMSSYDFHGDTDAGGPNVPVHNNGNLECFASNWKCEHRWSYIAGGVDFRNNTADNWAVTNWWDNTNNQISFGRGSSGHMAINKEDSTLTATVQTDMASGQYCNVLKGELSADAKSCSGEVITVNSDGTINLNIGAWDAMAIHKNAKLNTSSASSTESDWQRTVIFINAQTQSGQDMFIRGGIDHAYANANLGRNCQTSNFECAMPIRHNNLKNVTTSPWKANDNYLDWYGIENGQSSEAEGSATDWTTNVWPAGWGAEKTVNTDGFGVTPLNIWGEHYWMLDVDMDCSKAVNGWFELKAFIKNGQGWETAIAQDNAPYTSTNHMAQCGKINKFEFNNSGVVIRSF
# Variants of: B1
# Details: Pseudoalteromonas haloplanktis; pH 7.2; Thermal; DSC; MOPS 30 mM; NaCl 50 mM; transition: 3; reversible: yes(51 %); structure 1AQH; whole UniProt chain shown
Variant,Tm,unfolding enthalpy (calorimetric),unfolding enthalpy (van 't Hoff)
Q188I V220F,44.7 °C,83 kcal/mol,121 kcal/mol

# Same assay, conditions: Pseudoalteromonas haloplanktis; pH 7.2; Thermal; DSC; MOPS 30 mM; NaCl 50 mM; reversible: yes(91 %); structure 1AQH; whole UniProt chain shown
Variant,Tm,unfolding enthalpy (calorimetric),unfolding enthalpy (van 't Hoff)
N174D V220F,46.4 °C,272 kcal/mol,271 kcal/mol

# Same assay, conditions: Pseudoalteromonas haloplanktis; pH 7.2; Thermal; DSC; MOPS 30 mM; NaCl 50 mM; reversible: yes(76 %); structure 1AQH; whole UniProt chain shown
Variant,Tm,unfolding enthalpy (calorimetric),unfolding enthalpy (van 't Hoff)
E303W,41.4 °C,186 kcal/mol,234 kcal/mol

# Same assay, conditions: Pseudoalteromonas haloplanktis; pH 7.2; Thermal; DSC; MOPS 30 mM; NaCl 50 mM; reversible: yes(81 %); structure 1AQH; whole UniProt chain shown
Variant,Tm,unfolding enthalpy (calorimetric),unfolding enthalpy (van 't Hoff)
L243R,42.5 °C,217 kcal/mol,187 kcal/mol

# Same assay, conditions: Pseudoalteromonas haloplanktis; pH 7.2; Thermal; DSC; MOPS 30 mM; NaCl 50 mM; transition: 3; reversible: yes(95 %); structure 1AQH; whole UniProt chain shown
Variant,unfolding enthalpy (calorimetric),unfolding enthalpy (van 't Hoff)
M403V,127 kcal/mol and 84 kcal/mol,96 kcal/mol and 137 kcal/mol

# Same assay, conditions: Pseudoalteromonas haloplanktis; pH 7.2; Thermal; DSC; MOPS 30 mM; NaCl 50 mM; reversible: yes(60 %); structure 1AQH; whole UniProt chain shown
Variant,Tm,unfolding enthalpy (calorimetric),unfolding enthalpy (van 't Hoff)
V220F,45.4 °C,234 kcal/mol,296 kcal/mol

# Same assay, conditions: Pseudoalteromonas haloplanktis; pH 7.2; Thermal; DSC; MOPS 30 mM; NaCl 50 mM; transition: 3; reversible: yes(64 %); structure 1AQH; whole UniProt chain shown
Variant,Tm,unfolding enthalpy (calorimetric),unfolding enthalpy (van 't Hoff)
Q188I,42.7 °C and 45.2 °C,87 kcal/mol and 117 kcal/mol,117 kcal/mol and 240 kcal/mol

# Same assay, conditions: Pseudoalteromonas haloplanktis; pH 7.2; Thermal; DSC; MOPS 30 mM; NaCl 50 mM; reversible: yes(96 %); structure 1AQH; whole UniProt chain shown
Variant,Tm,unfolding enthalpy (calorimetric),unfolding enthalpy (van 't Hoff)
R88E,42.6 °C,236 kcal/mol,112 kcal/mol

# Same assay, conditions: Pseudoalteromonas haloplanktis; pH 7.2; Thermal; DSC; MOPS 30 mM; NaCl 50 mM; transition: 3; reversible: yes(30 %); structure 1AQH; whole UniProt chain shown
Variant,unfolding enthalpy (calorimetric),unfolding enthalpy (van 't Hoff)
N312V,88 kcal/mol and 59 kcal/mol,133 kcal/mol and 114 kcal/mol

# Same assay, conditions: Pseudoalteromonas haloplanktis; pH 7.2; Thermal; DSC; MOPS 30 mM; NaCl 50 mM; reversible: yes(97 %); structure 1AQH; whole UniProt chain shown
Variant,Tm,unfolding enthalpy (calorimetric),unfolding enthalpy (van 't Hoff)
N174D,44.8 °C,271 kcal/mol,240 kcal/mol

# Same assay, conditions: Pseudoalteromonas haloplanktis; pH 7.2; Thermal; DSC; MOPS 30 mM; NaCl 50 mM; reversible: yes(25 %); structure 1AQH; whole UniProt chain shown
Variant,Tm,unfolding enthalpy (calorimetric),unfolding enthalpy (van 't Hoff)
N36R,43.3 °C,193 kcal/mol,231 kcal/mol

# Same assay, conditions: Pseudoalteromonas haloplanktis; pH 7.2; Thermal; DSC; MOPS 30 mM; NaCl 50 mM; transition: 3; reversible: yes(85 %); structure 1AQH; whole UniProt chain shown
Variant,Tm,unfolding enthalpy (calorimetric),unfolding enthalpy (van 't Hoff)
T256V,42.7 °C and 45.7 °C,102 kcal/mol and 104 kcal/mol,114 kcal/mol and 202 kcal/mol

# Reference: FireProtDB (doi:10.1074/jbc.m102741200)
